In doi:10.1101/2020.05.06.071340 one finds binding result and Kd data, which are given here for two molecules.

What is called Kd is the free concentration of one partner at which half of the binding sites on the other are occupied at equilibrium, for simple one-to-one binding. Higher therefore signals weaker binding.

The target in one data set is T1, CCTN (Arabidopsis, UniProt Q9LKL2 533-565).
T1 chain: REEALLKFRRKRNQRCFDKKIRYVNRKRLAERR
Description: NMR.

A further data set has as its target T2, CCT (NMR construct) (Arabidopsis, UniProt Q9LKL2 533-590).
T2 sequence: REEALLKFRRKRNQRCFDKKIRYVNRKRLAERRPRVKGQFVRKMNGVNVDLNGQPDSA
Description: NMR.

Data set [1] addresses T3, TOC1-CCT (Arabidopsis, UniProt Q9LKL2 533-575).
T3 chain: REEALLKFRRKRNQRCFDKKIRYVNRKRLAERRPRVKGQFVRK
Nature of the data set: EMSA. (Mobility shift assays separate free from complexed probe on a gel.)

Data set [2] has as its target T3, TOC1-CCT. Description: ITC. A general note: In ITC the heat of successive injections is recorded.

On to UGGAGGGGA (ssRNA) [NMR RNA], for which the binding result with CCTN and in the data set with CCT (NMR construct) was “binds” each time.

In the case of AAAUAAAUGGAGGGGAAAAAUAAAU (ssRNA) [G-rich RNA probe], the Kd was determined as 110 ± 6 nM in the data set with TOC1-CCT [1] and 124 ± 8 nM with TOC1-CCT [2].
